Two substances from patent publication US6645498 can be followed below.

The target in test [1] is bovine serum albumin (bovine) (UniProt P02769). Nature of the test: ELISA, BSA coated at 5 µg/ml, antibody at 10 µg/ml. On the technique in general: In an ELISA, binding on a coated surface is turned into a signal by an enzyme label.
Test [2] addresses native GA733-2 antigen (human) (UniProt P16422). As to the kind of experiment: ELISA, antigen coated at 5 µg/ml, antibody at 10 µg/ml.
In test [3] the target is secreted recombinant GA733-2E antigen (human) (UniProt P16422). The description is as above.

UniProt P02769, sequence (P02769 25-607 limits assumed): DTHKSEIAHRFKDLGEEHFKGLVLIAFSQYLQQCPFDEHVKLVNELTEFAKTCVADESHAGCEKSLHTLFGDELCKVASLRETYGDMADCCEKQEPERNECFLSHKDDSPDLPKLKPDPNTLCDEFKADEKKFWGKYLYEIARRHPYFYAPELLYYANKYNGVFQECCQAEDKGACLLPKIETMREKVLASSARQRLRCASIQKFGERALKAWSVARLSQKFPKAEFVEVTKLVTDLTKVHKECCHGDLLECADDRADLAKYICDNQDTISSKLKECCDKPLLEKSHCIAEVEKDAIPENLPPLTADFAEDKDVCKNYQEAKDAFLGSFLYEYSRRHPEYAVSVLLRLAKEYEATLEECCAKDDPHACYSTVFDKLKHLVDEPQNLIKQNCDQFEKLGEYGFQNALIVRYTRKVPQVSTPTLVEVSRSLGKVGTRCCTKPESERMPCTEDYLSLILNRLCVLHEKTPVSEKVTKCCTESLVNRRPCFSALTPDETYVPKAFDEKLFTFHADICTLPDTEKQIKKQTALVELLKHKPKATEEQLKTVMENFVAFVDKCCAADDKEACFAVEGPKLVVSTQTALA

On to murine mAb GA733 (antibody), for which the Maximal optical density (at 405 nm) amounted to 0.02 OD 405 nm in test [1], 0.86 OD 405 nm in test [2] and 1.3 OD 405 nm in test [3].

Consider Normal mouse IgG (antibody), for which the Maximal optical density (at 405 nm) in test [1], in test [2] and in test [3] was 0 OD 405 nm each time.
